Source: PMC3797800, “The Coordination of Cell Growth during Fission Yeast Mating Requires Ras1-GTP Hydrolysis” (PLoS ONE, 2013)

Target: T1, CFP-Ras1 (S. pombe, UniProt P08647 1-219)
T1 construct: Ras1, small GTPase of Schizosaccharomyces pombe; ORF amplified from the start codon to the stop codon and cloned behind CFP; also called Ras1-GTP; source: S. pombe (strain JY1618, Δras1Δgap1), expressed from pREP4x (nmt1 promoter), in living cells; not shown: CFP, N-terminal, kept
T1 sequence (looked up): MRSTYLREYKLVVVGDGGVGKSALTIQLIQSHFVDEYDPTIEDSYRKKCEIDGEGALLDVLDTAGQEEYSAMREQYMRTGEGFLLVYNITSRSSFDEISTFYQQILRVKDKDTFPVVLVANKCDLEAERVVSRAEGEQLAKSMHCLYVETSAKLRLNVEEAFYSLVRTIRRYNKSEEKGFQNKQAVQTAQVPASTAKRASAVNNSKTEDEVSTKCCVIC
Experiment: FRET or BRET; FACS-based FRET (405 nm excitation, 585/42 nm emission), living S. pombe cells co-expressing CFP and YFP fusions; percent of cells with a FRET signal over 0-8 h after 10 μM pheromone
Settings: partners not purified

B1: Gap1-YFP (natural protein, S. pombe, UniProt P33277 1-766, looked up)
chain: MTKRHSGTLSSSVLPQTNRLSLLRNRESTSVLYTIDLDMESDVEDAFFHLDRELHDLKQQISSQSKQNFVLERDVRYLDSKIALLIQNRMAQEEQHEFAKRLNDNYNAVKGSFPDDRKLQLYGALFFLLQSEPAYIASLVRRVKLFNMDALLQIVMFNIYGNQYESREEHLLLSLFQMVLTTEFEATSDVLSLLRANTPVSRMLTTYTRRGPGQAYLRSILYQCINDVAIHPDLQLDIHPLSVYRYLVNTGQLSPSEDDNLLTNEEVSEFPAVKNAIQERSAQLLLLTKRFLDAVLNSIDEIPYGIRWVCKLIRNLTNRLFPSISDSTICSLIGGFFFLRFVNPAIISPQTSMLLDSCPSDNVRKTLATIAKIIQSVANGTSSTKTHLDVSFQPMLKEYEEKVHNLLRKLGNVGDFFEALELDQYIALSKKSLALEMTVNEIYLTHEIILENLDNLYDPDSHVHLILQELGEPCKSVPQEDNCLVTLPLYNRWDSSIPDLKQNLKVTREDILYVDAKTLFIQLLRLLPSGHPATRVPLDLPLIADSVSSLKSMSLMKKGIRAIELLDELSTLRLVDKENRYEPLTSEVEKEFIDLDALYERIRAERDALQDVHRAICDHNEYLQTQLQIYGSYLNNARSQIKPSHSDSKGFSRGVGVVGIKPKNIKSSNTVKLSSQQLKKESVLLNCTIPEFNVSNTYFTFSSPSTDNFVIAVYQRGHSKVLVEVCICLDDVLQRRYASNPVVDLGFLTFEANKLYHLFEQLFLRK
notes: ORF amplified from the start codon, stop codon removed, cloned in front of YFP; source: S. pombe, expressed from pREP3x (nmt1 promoter), in living cells; not shown: YFP, C-terminal, kept
For B1, the “fold increase of the percent of cells with a FRET signal, 30 min pheromone against time 0” value was 2 fold.
